Reference: patent US20180303937A1, “A COMPOSITION FOR CONTROLLED RELEASE OF A BIOMOLECULE, METHOD OF PREPARATION AND USES THEREOF” (CENTRO DE NEUROCIENCIAS E BIOLOGIA CELULAR, priority 2015, published 2018)

Test system: SC-1 mouse fibroblasts
Experiment: Cytotoxicity of BSA-dsDNA51.7-AuNR (Celltiter-Glo ATP assay)
Format: cell-based
Conditions: 50 μg/mL NR; irradiation 1.25 to 2 W/cm^2, 2 min
Experimental: FIG. 7: Cytotoxicity of BSA-dsDNA51.7-AuNR. Mouse fibroblasts were seeded on a 96 well plate (4×10^3 cells/well), left to adhere for 24 h and then incubated with different concentrations of BSA-dsDNA51.7-AuNR for 4 h. After incubation, the cells were washed with medium to remove non-internalized AuNR. Some of the conditions were irradiated for 2 min with 1.25 or 2 W/cm^2. Then, the plate was left in the incubator for 24 h. The ATP production was measured by a Celltiter-Glo Luminescent Cell Viability Assay (Promega).
Cytotoxicity of BSA-dsDNA51.7-AuNR. SC-1 mouse fibroblasts were grown in DMEM supplemented with 10% fetal bovine serum (FBS), at 37° C. in a fully humidified air containing 5% CO2. To assess the cytotoxicity of gold NRs, fibroblasts were seeded on a 96 well plate (4×10^3 cells/well), left to adhere for 24 h and then incubated with BSA-dsDNA51.7-AuNR for 4 h. After incubation, the cells were washed with medium to remove non-internalized NR. In some conditions, after incubation with BSA-dsDNA51.7-AuNR, the cells were washed and irradiated with a fiber coupled Roithner laser (785 nm). Each well was placed below the end of the fibre and irradiated with a power density of 1.25 and 2 W/cm^2 for 2 min. Then cells were left in the incubator for 24 h and the ATP production was measured by a Celltiter-Glo Luminescent Cell Viability Assay (Promega).

Substance: BSA-dsDNA51.7-AuNR: gold nanorods carrying BSA via dsDNA with melting temperature 51.7° C.
- cytotoxic effects (ATP production): do not show significant cytotoxic effects
